Data: publication PMC5680790 (mAbs, 2017)

Assays:
EGFR-ECD [1] = biological target: T1, EGFR-ECD (UniProt P00533 25-645); test: BLI
EGFR-ECD [2] = biological target: T1, EGFR-ECD; test: BLI; remark: listed apart in the source

Kd (EGFR-ECD [1]): ~1 nM
koff (EGFR-ECD [2]): 0.00034 s⁻¹
kon (EGFR-ECD [2]): 350000 M⁻¹ s⁻¹
B1: Anti-EGFR mAb (antibody, V domains shown)
VH: EVQLVESGGGLVQPGGSLRLSCAASGFSLTNRGVHWVRQAPGKGLEWVGVIWSGGNTDYNTPFTSRFTISRDNSKNTLYLQMNSLRAEDTAVYYCARALTYYDYEFAYWGQGTLVTVSS
VL: not shown
